This note sets out measurements from article doi:10.1101/2020.03.10.985002.

The target in data set [1] is T1, HY5 (UniProt O24646 1-168).
T1 sequence: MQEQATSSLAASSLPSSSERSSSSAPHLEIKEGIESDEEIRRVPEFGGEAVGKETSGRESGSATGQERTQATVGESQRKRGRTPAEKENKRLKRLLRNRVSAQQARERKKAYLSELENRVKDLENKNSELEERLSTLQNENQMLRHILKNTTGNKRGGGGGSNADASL
Description: competition.

For data set [2], the target named is T1, HY5. Put plainly: EMSA.

B1: G-box cold competitor (GbH5) (dsDNA)
DNA 1: GTTCTAGTGTATCAGACACGTGTCGACAAACTGGTGG
DNA 2: CCACCAGTTTGTCGACACGTGTCTGATACACTAGAA
On to B1, for which the binding result with HY5 [1] is listed as “binds”.

B2: PAP8 promoter box probe (oP8Box) (dsDNA)
DNA 1: GGATACCAAAAATGACGCTCTTAATTATTTCC
DNA 2: GGAAATAATTAAGAGCGTCATTTTTGGTATCC
For the molecule B2, the binding result with HY5 [2] is on record as “binds”.
